From ChEMBL document CHEMBL2074196, “Drug absorption limited by P-glycoprotein-mediated secretory drug transport in human intestinal epithelial Caco-2 cell layers” (Pharm Res, 1993) come the findings set out here.

The test system of this series is CC[C@]1(O)C[C@@H]2CN(CCc3c([nH]c4ccccc34)[C@@](C(=O)OC)(c3cc4c(cc3OC)N(C)[C@H]3[C@@](O)(C(=O)OC)[C@H](OC(C)=O)[C@]5(CC)C=CCN6CC[C@]43[C@@H]65)C2)C1. As to the kind of experiment: TP_TRANSPORTER: transepithelial transport (basal to apical) in Caco-2 cells. It is filed as functional, cell-based. In general terms: Caco-2 monolayers are a common model of the intestinal barrier.

In the case of “ATP-dependent translocase ABCB1 (Homo sapiens)”, the Km is 19 µM.

A word on the Km: it is the concentration of substrate that gives half-maximal velocity.
